US20060150268A1, “Plant-derived transferase genes” (priority 2002, published 2006)

Assays:
[1] = system: HQT enzyme activity (caffeoyl CoA and quinic acid as substrates); assay: HQT enzyme assay with crude extracts from E. coli expressing the recombinant protein; format: biochemical, Escherichia coli; conditions: recombinant protein expressed in E. coli, decrease of caffeoyl-CoA measured spectrophotometrically (FIG. 5)
Method: As described above, HQT catalyses the production of chlorogenic acid via transfer of the caffeoyl moiety of caffeoyl-CoA to quinic acid. Such activity can be assessed, for example, using the assay described in Example 2. Briefly, the assay uses caffeoyl CoA and quinic acid as substrates, and the rate of conversion of caffeoyl CoA to chlorogenic acid is determined by spectrophotometry.
The reaction was initiated by adding the substrate quinic acid and the enzyme activity was measured spectrophotometrically as decrease of the amount of caffeoyl-CoA.
The enzyme activity was determined by spectrophotometry at 30° C. The reaction mixture contained in a total volume of 1 ml: 100 mM Na-Pi buffer pH 7.0, 1 mM EDTA, 16.8 μM caffeoyl CoA and 10-50 μl protein extract. […] The extinction coefficient for caffeoyl CoA is 1.8×10^4 M^−1 cm^−1 (ZENK et al., 1980). The synthesis of caffeoyl CoA was carried out as described previously (SEMLER et al., 1987).
The full-length cDNA of HQT from tomato was subcloned in frame into the NcoI and BamHI-sites of the expression vector pSTAG under the control of the T7 RNA-Polymerase promoter. This strategy led to the introduction of a sequence encoding an S-TAG at the 5′-end of the cDNA. According to procedures provided by the manufacturer (Novagen), the expression and purification of the fusion protein was carried out using the S-TAG™ Thrombin Purification Kit. The enzyme activity of the purified protein was then analysed in HQT enzyme assays.

[2] = system: leaves of Nicotiana benthamiana; assay: Transient expression of HQT in leaves of Nicotiana benthamiana; format: in vivo; conditions: for HQT enzyme activity in leaves: plants expressing HQT under the control of the 35S promoter (FIG. 6); for amount of chlorogenic acid in vivo in plants: plants expressing HQT under the control of the 35S promoter, HPLC after 4 days (FIG. 6)
Method: Leaves were infiltrated with Agrobacterium tumefaciens C58C1 transformed with the plasmid pGFP, which contains the cDNA encoding GFP under control of the 35S promoter, along with bacteria transformed with either the plasmid p19 which carries a cDNA encoding a gene-silencing protein or the control plasmid pBIN19.
Soluble phenolics were extracted by vortexing 30 mg of frozen, powdered leaf material in 300 μl of 70% methanol. After addition of 100 μl distilled water, the extract was vortexed again and then spun for 10 sec at 13,000 g to pellet the debris. The supernatant was analysed by gradient HPLC (apparatus from Spectra Physics, San Jose, Calif.) using a Columbus 5-μm C18 column (25 cm×4.6 mm; Phenomenex, Macclesfiled, Cheshire, UK). Solvent A was 1 mM trifluoroacetic acid, solvent B was acetonitrile, and the gradient was run for 65 min at flow rate of 1 ml min^−1 with the following concentrations: 0 min :100% A, 0% B; 50 min: 60% A, 40% B; 60 min: 30% A, 70% B; 65 min: 100% A, 0% B. The column eluant was monitored using a Spctra Fous scanning detector (Spectra Physics). A chlorogenic acid standard (Sigma) was used to quantify the amount of chlorogenic acid in the leaf extracts.
After the transfer of the overexpression constructs pTom and pTob, and the iRNA constructs pFRNtom and pFRN-tob to Agrobacterium tumefaciens C58C1 (DEBLAERE et al., 1985) single colonies were used for growing 50 mL overnight cultures. Additional 50 ml overnight cultures of Agrobacterium tumefaciens C58C1 containing expression constructs of the green fluorescent protein (PGFP) or the gene silencing inhibitor protein 19 (p19; kindly provided by O. Vionnet) or the empty binary vectors pBIN19 and pFRN were also grown. The cells were precipitated by centrifugation at 4000 g for 20 min and resuspended in 50 ml 10 mM MgCl2. After addition of 50 μl 100 mM acetosyringene the cells were incubated at room temperature overnight. To overexpress HQT similar amounts of the cultures containing pGFP, pTom, pTob were mixed with the same volume of cultures containing either pBIN19 or p19 and each mixture was used to infiltrate three leaves of a Nicotiana benthamiana plant. […] For gene silencing the cultures containing pFRN-tom, pFRN-tob and pFRN were used to infiltrate three leaves of Nicotiana benthamiana.

Molecule | HQT enzyme activity [1] | HQT enzyme activity ([1]; listed as Hsr201) | HQT enzyme activity in leaves [2] | amount of chlorogenic acid in vivo in plants [2] [fold]
hsr201: tobacco hypersensitive response protein 201, a member of the transferase family (protein, UniProt Q8GT20 1-460, looked up) Benzyl alcohol …: MDSKQSSELVFTVRRQKPELIAPAKPTPREIKFLSDIDDQEGLRFQIPVIQFYHKDSSMGRKDPVKVIKKAIAETLVFYYPFAGRLREGNGRKLMVDCTGEGIMFVEADADVTLEQFGDELQPPFPCLEELLYDVPDSAGVLNCPLLLIQVTRLRCGGFIFALRLNHTMSDAPGLVQFMTAVGEMARGASAPSILPVWCRELLNARNPPQVTCTHHEYDEVRDTKGTIIPLDDMVHKSFFFGPSEVSALRRFVPHHLRKCSTFELLTAVLWRCRTMSLKPDPEEEVRALCIVNARSRFNPPLPTGYYGNAFAFPVAVTTAAKLSKNPLGYALELVKKTKSDVTEEYMKSVADLMVLKGRPHFTVVRTFLVSDVTRGGFGEVDFGWGKAVYGGPAKGGVGAIPGVASFYIPFKNKKGENGIVVPICLPGFAMETFVKELDGMLKVDAPLDNSNYAIIRPAL | no enzyme activity was detected | no HQT enzyme activity | – | –
tomHQT: hydroxycinnamoyl-CoA quinate hydroxycinnamoyl transferase from tomato, 430 amino acids, SEQ ID NO 1 (protein, listed as Lycopersicon esculentum) MGSEKMMKINIKESTLVKPSKPTPTKRIWSSNLDLIVGRIHLLTVYFYKPNGSSNFFDNKVIKEALSNVLVSFYPMAGRLGRDEQGRIEVNCNGEGVLFVEAESDSCVDDFGDFTPSLELRKLIPSVETSGDISTFPLVIFQITRFKCGGVALGGGVFHTLSDGLSSIHFINTWSDIARGLSVAVPPFIDRTLLRARDPPTYSFEHVEYHPPPTLNSSKNRESSTTTMLKFSSEQLGLLKSKSKNEGSTYEILAAHIWRCTCKARGLPEDQLTKLHVATDGRSRLCPPLPPGYLGNVVFTATPIAKSCELQSEPLTNSVKRIHNELIKMDDNYLRSALDYLELQPDLSTLIRGPAYFASPNLNINSWTRLPVHECDFGWGRPIHMGPACILYEGTIYIIPSPNSKDRNLRLAVCLDAGHMSLFEKYLYEL | showed HQT enzyme activity | – | Increased HQT enzyme activity | 2
tobHQT: hydroxycinnamoyl-CoA quinate hydroxycinnamoyl transferase from tobacco, 436 amino acids, SEQ ID NO 2 (protein, listed as Nicotiana tabacum) MGSEKMMKINIKESTLVKPSKPTPTKRLWSSNLDLIVGRIHLLTVYFYKPNGSSNFFDSKIMKEALSNVLVSFYPMAGRLARDEQGRIEINCNGEGVLFVEAESDAFVDDFGDFTPSLELRKLIPTVDTSGDISTFPLIIFQVTRFKCGGVSLGGGVFHTLSDGLSSIHFINTWSDIARGLSVAIPPFIDRTLLRARDPPTSSFEHVEYHPPPSLISSSKSLESTSPKPSTTTMLKFSSDQLGLLKSKSKHDGSTYEILAAHIWRCTCKARALSDDQLTKLHVATDGRSRLCPPLPPGYLGNVVFTGTPMAKSSELLQEPLTNSAKRIHSALSKMDDNYLRSALDYLELLPDLSALIRGPTYFASPNLNINSWTRLPVHDSDFGWGRPIHMGPACILYEGTVYILPSPNSKDRNLRLAVCLDADHMPLFEKYLYEF | – | – | Increased HQT enzyme activity | 2
